# Reference: patent US20150368311A1 (Sanofi, published 2015)
# Non-standard residues stand in square brackets, D forms with d. No end group written: not given here. Ala(4-thiazolyl) = N[C@@H](Cc1cscn1)C(=O)O
# B1: SEQ ID NO: 4 (peptide)
# peptide: [Ala(4-thiazolyl)]SQGTFTSDLSKQLESRRAQEFIEWLLAGGPESGAPPPS-OH
# modifications: N-terminus assumed
# SMILES: CC[C@H](C)[C@H](NC(=O)[C@H](Cc1ccccc1)NC(=O)[C@H](CCC(=O)O)NC(=O)[C@H](CCC(N)=O)NC(=O)[C@H](C)NC(=O)[C@H](CCCNC(=N)N)NC(=O)[C@H](CCCNC(=N)N)NC(=O)[C@H](CO)NC(=O)[C@H](CCC(=O)O)NC(=O)[C@H](CC(C)C)NC(=O)[C@H](CCC(N)=O)NC(=O)[C@H](CCCCN)NC(=O)[C@H](CO)NC(=O)[C@H](CC(C)C)NC(=O)[C@H](CC(=O)O)NC(=O)[C@H](CO)NC(=O)[C@@H](NC(=O)[C@H](Cc1ccccc1)NC(=O)[C@@H](NC(=O)CNC(=O)[C@H](CCC(N)=O)NC(=O)[C@H](CO)NC(=O)[C@@H](N)Cc1cscn1)[C@@H](C)O)[C@@H](C)O)C(=O)N[C@@H](CCC(=O)O)C(=O)N[C@@H](Cc1c[nH]c2ccccc12)C(=O)N[C@@H](CC(C)C)C(=O)N[C@@H](CC(C)C)C(=O)N[C@@H](C)C(=O)NCC(=O)NCC(=O)N1CCC[C@H]1C(=O)N[C@@H](CCC(=O)O)C(=O)N[C@@H](CO)C(=O)NCC(=O)N[C@@H](C)C(=O)N1CCC[C@H]1C(=O)N1CCC[C@H]1C(=O)N1CCC[C@H]1C(=O)N[C@@H](CO)C(=O)O
# How the values were obtained:
# Experiment in all cases: cell-based or functional assay
# human GLP-1 receptor [1] = biological target: T1, human GLP-1 receptor (human, UniProt P43220 24-463)
# human glucagon receptor [2] = biological target: T2, human glucagon receptor (human, UniProt P47871 26-477)
# human GLP-1 receptor [3] = biological target: T1, human GLP-1 receptor; remark: listed apart in the source
# human glucagon receptor [4] = biological target: T2, human glucagon receptor; remark: listed apart in the source
# T2 sequence (P47871 26-477): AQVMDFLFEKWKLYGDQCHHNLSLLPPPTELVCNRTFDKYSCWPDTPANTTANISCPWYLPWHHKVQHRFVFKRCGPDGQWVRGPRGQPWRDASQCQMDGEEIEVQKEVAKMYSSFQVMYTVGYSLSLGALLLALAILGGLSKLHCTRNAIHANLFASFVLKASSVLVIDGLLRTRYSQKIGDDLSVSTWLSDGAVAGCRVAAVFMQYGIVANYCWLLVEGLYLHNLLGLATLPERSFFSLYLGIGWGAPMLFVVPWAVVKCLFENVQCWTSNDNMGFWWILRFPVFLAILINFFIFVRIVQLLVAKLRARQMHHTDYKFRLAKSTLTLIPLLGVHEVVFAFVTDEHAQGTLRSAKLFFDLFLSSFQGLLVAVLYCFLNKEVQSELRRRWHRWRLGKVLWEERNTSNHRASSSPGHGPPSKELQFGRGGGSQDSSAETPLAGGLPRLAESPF
binder,measurement,setting,value
B1,"EC50 hGLP-1 R [pM], cAMP formation",human GLP-1 receptor [1],3300 pM
same,"EC50 hGLUC R [pM], cAMP formation",human glucagon receptor [2],0.7 pM
same,"EC50 hGLP-1R, cAMP formation",human GLP-1 receptor [3],3.3 nM
same,"EC50 hGlucagon-R, cAMP formation",human glucagon receptor [4],0.0007 nM
